Assay results as given in article PMC9918506, “Structural insights into pathogenic mechanism of hypohidrotic ectodermal dysplasia caused by ectodysplasin A variants” (Nature Communications, 2023).

T1: EDA·A1 TNF homology domain (EDA·A1THD, residues 233-391) (human, UniProt Q92838 233-391)
T1 construct: ectodysplasin A, splice form EDA·A1, human, TNF homology domain, residues 233-391; MBP removed with 3C protease; codon-optimised cDNA in pMAL-c2x; Trimer in the crystal structure; also called EDATHD; ectodysplasin A; source: E. coli BL21 CodonPlus (DE3), purified (amylose beads, Superdex 200, Mono-S, Superdex 200 increase); not shown: MBP, N-terminal, cleaved
T1 sequence (looked up): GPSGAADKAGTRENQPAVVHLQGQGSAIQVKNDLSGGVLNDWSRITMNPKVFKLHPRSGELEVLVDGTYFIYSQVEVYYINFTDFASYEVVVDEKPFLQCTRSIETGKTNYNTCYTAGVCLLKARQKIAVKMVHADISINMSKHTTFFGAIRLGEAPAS

B1: EDAR cysteine-rich domains (EDAR_(CRDS), residues 30-150) (domain or fragment, human, UniProt Q9UNE0 30-150, looked up)
chain: NCGENEYYNQTTGLCQECPPCGPGEEPYLSCGYGTKDEDYGCVPCPAEKFSKGGYQICRRHKDCEGFFRATVLTPGDMENDAECGPCLPGYYMLENRPRNIYGMVCYSCLLAPPNTKECVG
notes: EDAR, human, N-terminal cysteine-rich domains, residues 30-150; MBP removed with 3C protease; also called EDAR ectodomain; source: Hi5 insect cells (baculovirus), secreted, purified (amylose beads, Mono-Q, Superdex 200); not shown: MBP, N-terminal, cleaved
B2: EDAR cysteine-rich domains (EDAR_(CRDS), residues 30–150), MBP tag removed (domain or fragment, human)
chain: GGSGGSGGSGGSNCGENEYYNQTTGLCQECPPCGPGEEPYLSCGYGTKDEDYGCVPCPAEKFSKGGYQICRRHKDCEGFFRATVLTPGDMENDAECGPCLPGYYMLENRPRNIYGMVCYSCLLAPPNTKECVG
notes: EDAR (ectodysplasin A receptor), human, cysteine-rich domains CRD1-CRD3, residues 30-150; Construct: EDAR signal peptide (residues 1-28), MBP, 3C site, linker, EDAR 30-150; That the linker stays on the protein after 3C cleavage follows only from the order in which the methods list the elements; also called ectodomains of EDAR; source: Hi5 insect cells (baculovirus), secreted, purified (amylose, …)
B3: EDA·A1 TNF homology domain (EDA·A1THD, residues 233–391), wild type (domain or fragment, human, UniProt Q92838 233-391, looked up)
chain: T1 sequence (looked up)
notes: ectodysplasin A, splice form EDA·A1 (with Val307-Glu308), human, THD residues 233-391; Optimized cDNA in pMAL-c2x; MBP removed with 3C protease; Trimer in the crystal structure; also called WT EDA·A1THD; ectodysplasin A THD; source: E. coli BL21 CodonPlus (DE3), purified (amylose, Superdex 200, 3C cleavage, Mono-S, Superdex 200); not shown: MBP, N-terminal, cleaved

Columns and labels:
[1] = target: T1, EDA·A1 TNF homology domain (EDA·A1THD, …); experiment: SEC; gel filtration on a Superdex 200 analytical column, fractions on SDS-PAGE; EDA·A1THD alone, EDAR_(CRDS) alone and the mixture; details: both partners purified
[2] = target: EDA·A1THD (residues 233–391) R276C (human, UniProt Q92838 233-391, R276C); experiment: SPR
[3] = target: B3; experiment: SPR; WT and mutant EDA·A1THD immobilised on CM5 chips, EDAR_(CRDS) serially diluted and injected; Biacore 8K; 10 mM HEPES pH 7.5, 150 mM NaCl, 3 mM EDTA, 25 °C; steady-state analysis at equilibrium; details: both partners purified
[4] = target: the molecule itself; experiment: crystal structure; EDA·A1THD and EDAR_(CRDS) mixed at a molar ratio of 1:1; crystals in 25% PEG-6000, 0.1 M BICINE pH 9.0, 4 °C; 2.8 Å

B1
binding result [1]: binds

B2
Kd [2]: 35.9 nM
Kd [3]: 18.5 nM

B3
stoichiometry N [4]: 3
